Measurements taken from patent US20200087373A1 (UNIVERSITY OF COPENHAGEN, published 2020).
Ends that are not written are not given here. * marks the point of attachment. C16 diacid = O=C(O)CCCCCCCCCCCCCCC(=O)*

Molecular target: T1, human GIP receptor (human, UniProt P48546 22-466)
T1 sequence (looked up): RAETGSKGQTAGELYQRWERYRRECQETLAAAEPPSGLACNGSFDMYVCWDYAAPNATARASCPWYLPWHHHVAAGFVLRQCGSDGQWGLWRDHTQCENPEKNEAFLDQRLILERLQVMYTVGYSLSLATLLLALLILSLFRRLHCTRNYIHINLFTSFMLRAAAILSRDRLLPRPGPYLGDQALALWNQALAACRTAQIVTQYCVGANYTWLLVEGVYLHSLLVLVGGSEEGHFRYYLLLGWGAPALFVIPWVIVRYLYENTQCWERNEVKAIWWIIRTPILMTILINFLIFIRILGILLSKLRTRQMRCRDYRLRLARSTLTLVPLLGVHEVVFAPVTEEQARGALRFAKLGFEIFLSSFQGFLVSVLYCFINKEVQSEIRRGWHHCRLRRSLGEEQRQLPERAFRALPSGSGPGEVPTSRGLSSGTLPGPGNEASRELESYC
Assay: cell-based or functional assay

Binder | cAMP antagonism, log (IC50) [log M] | cAMP antagonism, nM (IC50) [nM] | cAMP agonism, EC50 (log) [log M] | cAMP agonism, Emax [%] | cAMP agonism, nM (EC50) [nM]
EGTFISK(C16 diacid)YSIAMDKIHQQDFVNWLLAQK-NH2 (N-terminus assumed; SMILES CC[C@H](C)[C@H](NC(=O)[C@H](CO)NC(=O)[C@H](Cc1ccc(O)cc1)NC(=O)[C@H](CCCCNC(=O)CCCCCCCCCCCCCCC(=O)O)NC(=O)[C@H](CO)NC(=O)[C@@H](NC(=O)[C@H](Cc1ccccc1)NC(=O)[C@@H](NC(=O)CNC(=O)[C@@H](N)CCC(=O)O)[C@@H](C)O)[C@@H](C)CC)C(=O)N[C@@H](C)C(=O)N[C@@H](CCSC)C(=O)N[C@@H](CC(=O)O)C(=O)N[C@@H](CCCCN)C(=O)N[C@H](C(=O)N[C@@H](Cc1c[nH]cn1)C(=O)N[C@@H](CCC(N)=O)C(=O)N[C@@H](CCC(N)=O)C(=O)N[C@@H](CC(=O)O)C(=O)N[C@@H](Cc1ccccc1)C(=O)N[C@H](C(=O)N[C@@H](CC(N)=O)C(=O)N[C@@H](Cc1c[nH]c2ccccc12)C(=O)N[C@@H](CC(C)C)C(=O)N[C@@H](CC(C)C)C(=O)N[C@@H](C)C(=O)N[C@@H](CCC(N)=O)C(=O)N[C@@H](CCCCN)C(N)=O)C(C)C)[C@@H](C)CC) [AT300 [hGIP(3-30)NH2[D9K]-C16diacid/9]] | -7.7 | 22 | – | – | –
EK(C16 diacid)TFISDYSIAMDKIHQQDFVNWLLAQK-NH2 (N-terminus assumed; SMILES CC[C@H](C)[C@H](NC(=O)[C@H](CO)NC(=O)[C@H](Cc1ccc(O)cc1)NC(=O)[C@H](CC(=O)O)NC(=O)[C@H](CO)NC(=O)[C@@H](NC(=O)[C@H](Cc1ccccc1)NC(=O)[C@@H](NC(=O)[C@H](CCCCNC(=O)CCCCCCCCCCCCCCC(=O)O)NC(=O)[C@@H](N)CCC(=O)O)[C@@H](C)O)[C@@H](C)CC)C(=O)N[C@@H](C)C(=O)N[C@@H](CCSC)C(=O)N[C@@H](CC(=O)O)C(=O)N[C@@H](CCCCN)C(=O)N[C@H](C(=O)N[C@@H](Cc1c[nH]cn1)C(=O)N[C@@H](CCC(N)=O)C(=O)N[C@@H](CCC(N)=O)C(=O)N[C@@H](CC(=O)O)C(=O)N[C@@H](Cc1ccccc1)C(=O)N[C@H](C(=O)N[C@@H](CC(N)=O)C(=O)N[C@@H](Cc1c[nH]c2ccccc12)C(=O)N[C@@H](CC(C)C)C(=O)N[C@@H](CC(C)C)C(=O)N[C@@H](C)C(=O)N[C@@H](CCC(N)=O)C(=O)N[C@@H](CCCCN)C(N)=O)C(C)C)[C@@H](C)CC) [AT295 [hGIP(3-30)NH2[G4K]-C16diacid/4]] | -8.1 | 9.5 | -8.6 | 78.6 | 2.6
EGTFIK(C16 diacid)DYSIAMDKIHQQDFVNWLLAQK-NH2 (N-terminus assumed; SMILES CC[C@H](C)[C@H](NC(=O)[C@H](CO)NC(=O)[C@H](Cc1ccc(O)cc1)NC(=O)[C@H](CC(=O)O)NC(=O)[C@H](CCCCNC(=O)CCCCCCCCCCCCCCC(=O)O)NC(=O)[C@@H](NC(=O)[C@H](Cc1ccccc1)NC(=O)[C@@H](NC(=O)CNC(=O)[C@@H](N)CCC(=O)O)[C@@H](C)O)[C@@H](C)CC)C(=O)N[C@@H](C)C(=O)N[C@@H](CCSC)C(=O)N[C@@H](CC(=O)O)C(=O)N[C@@H](CCCCN)C(=O)N[C@H](C(=O)N[C@@H](Cc1c[nH]cn1)C(=O)N[C@@H](CCC(N)=O)C(=O)N[C@@H](CCC(N)=O)C(=O)N[C@@H](CC(=O)O)C(=O)N[C@@H](Cc1ccccc1)C(=O)N[C@H](C(=O)N[C@@H](CC(N)=O)C(=O)N[C@@H](Cc1c[nH]c2ccccc12)C(=O)N[C@@H](CC(C)C)C(=O)N[C@@H](CC(C)C)C(=O)N[C@@H](C)C(=O)N[C@@H](CCC(N)=O)C(=O)N[C@@H](CCCCN)C(N)=O)C(C)C)[C@@H](C)CC) [AT299 [hGIP(3-30)NH2[S8K]-C16diacid/8]] | -6.7 | 199 | -7.8 | 15.2 | 15
EGTKISDYSIAMDKIHQQDFVNWLLAQK (C16-diacid (1,16-hexadecanedioic acid) on Lys 6 (GIP numbering); C-terminal amide) [AT297 [hGIP(3-30)NH2[F6K]-C16diacid/6]] | -6.2 | 603 | -7 | 19 | 9
EGTFISDK(C16 diacid)SIAMDKIHQQDFVNWLLAQK-NH2 (N-terminus assumed; SMILES CC[C@H](C)[C@H](NC(=O)[C@H](CO)NC(=O)[C@H](CCCCNC(=O)CCCCCCCCCCCCCCC(=O)O)NC(=O)[C@H](CC(=O)O)NC(=O)[C@H](CO)NC(=O)[C@@H](NC(=O)[C@H](Cc1ccccc1)NC(=O)[C@@H](NC(=O)CNC(=O)[C@@H](N)CCC(=O)O)[C@@H](C)O)[C@@H](C)CC)C(=O)N[C@@H](C)C(=O)N[C@@H](CCSC)C(=O)N[C@@H](CC(=O)O)C(=O)N[C@@H](CCCCN)C(=O)N[C@H](C(=O)N[C@@H](Cc1c[nH]cn1)C(=O)N[C@@H](CCC(N)=O)C(=O)N[C@@H](CCC(N)=O)C(=O)N[C@@H](CC(=O)O)C(=O)N[C@@H](Cc1ccccc1)C(=O)N[C@H](C(=O)N[C@@H](CC(N)=O)C(=O)N[C@@H](Cc1c[nH]c2ccccc12)C(=O)N[C@@H](CC(C)C)C(=O)N[C@@H](CC(C)C)C(=O)N[C@@H](C)C(=O)N[C@@H](CCC(N)=O)C(=O)N[C@@H](CCCCN)C(N)=O)C(C)C)[C@@H](C)CC) [AT301 [hGIP(3-30)NH2[Y10K]-C16diacid/10]] | -6.8 | 163 | -7.9 | 8.5 | 12
EGK(C16 diacid)FISDYSIAMDKIHQQDFVNWLLAQK-NH2 (N-terminus assumed; SMILES CC[C@H](C)[C@H](NC(=O)[C@H](CO)NC(=O)[C@H](Cc1ccc(O)cc1)NC(=O)[C@H](CC(=O)O)NC(=O)[C@H](CO)NC(=O)[C@@H](NC(=O)[C@H](Cc1ccccc1)NC(=O)[C@H](CCCCNC(=O)CCCCCCCCCCCCCCC(=O)O)NC(=O)CNC(=O)[C@@H](N)CCC(=O)O)[C@@H](C)CC)C(=O)N[C@@H](C)C(=O)N[C@@H](CCSC)C(=O)N[C@@H](CC(=O)O)C(=O)N[C@@H](CCCCN)C(=O)N[C@H](C(=O)N[C@@H](Cc1c[nH]cn1)C(=O)N[C@@H](CCC(N)=O)C(=O)N[C@@H](CCC(N)=O)C(=O)N[C@@H](CC(=O)O)C(=O)N[C@@H](Cc1ccccc1)C(=O)N[C@H](C(=O)N[C@@H](CC(N)=O)C(=O)N[C@@H](Cc1c[nH]c2ccccc12)C(=O)N[C@@H](CC(C)C)C(=O)N[C@@H](CC(C)C)C(=O)N[C@@H](C)C(=O)N[C@@H](CCC(N)=O)C(=O)N[C@@H](CCCCN)C(N)=O)C(C)C)[C@@H](C)CC) [AT296 [hGIP(3-30)NH2[T5K]-C16diacid/5]] | -7.8 | 14 | -8.6 | 6.7 | 2.6
EGTFK(C16 diacid)SDYSIAMDKIHQQDFVNWLLAQK-NH2 (N-terminus assumed; SMILES CC[C@H](C)[C@H](NC(=O)[C@H](CO)NC(=O)[C@H](Cc1ccc(O)cc1)NC(=O)[C@H](CC(=O)O)NC(=O)[C@H](CO)NC(=O)[C@H](CCCCNC(=O)CCCCCCCCCCCCCCC(=O)O)NC(=O)[C@H](Cc1ccccc1)NC(=O)[C@@H](NC(=O)CNC(=O)[C@@H](N)CCC(=O)O)[C@@H](C)O)C(=O)N[C@@H](C)C(=O)N[C@@H](CCSC)C(=O)N[C@@H](CC(=O)O)C(=O)N[C@@H](CCCCN)C(=O)N[C@H](C(=O)N[C@@H](Cc1c[nH]cn1)C(=O)N[C@@H](CCC(N)=O)C(=O)N[C@@H](CCC(N)=O)C(=O)N[C@@H](CC(=O)O)C(=O)N[C@@H](Cc1ccccc1)C(=O)N[C@H](C(=O)N[C@@H](CC(N)=O)C(=O)N[C@@H](Cc1c[nH]c2ccccc12)C(=O)N[C@@H](CC(C)C)C(=O)N[C@@H](CC(C)C)C(=O)N[C@@H](C)C(=O)N[C@@H](CCC(N)=O)C(=O)N[C@@H](CCCCN)C(N)=O)C(C)C)[C@@H](C)CC) [AT298 [hGIP(3-30)NH2[I7K]-C16diacid/7]] | -7.5 | 33 | – | – | –
EGTFISDYK(C16 diacid)IAMDKIHQQDFVNWLLAQK-NH2 (N-terminus assumed; SMILES CC[C@H](C)[C@H](NC(=O)[C@H](CCCCNC(=O)CCCCCCCCCCCCCCC(=O)O)NC(=O)[C@H](Cc1ccc(O)cc1)NC(=O)[C@H](CC(=O)O)NC(=O)[C@H](CO)NC(=O)[C@@H](NC(=O)[C@H](Cc1ccccc1)NC(=O)[C@@H](NC(=O)CNC(=O)[C@@H](N)CCC(=O)O)[C@@H](C)O)[C@@H](C)CC)C(=O)N[C@@H](C)C(=O)N[C@@H](CCSC)C(=O)N[C@@H](CC(=O)O)C(=O)N[C@@H](CCCCN)C(=O)N[C@H](C(=O)N[C@@H](Cc1c[nH]cn1)C(=O)N[C@@H](CCC(N)=O)C(=O)N[C@@H](CCC(N)=O)C(=O)N[C@@H](CC(=O)O)C(=O)N[C@@H](Cc1ccccc1)C(=O)N[C@H](C(=O)N[C@@H](CC(N)=O)C(=O)N[C@@H](Cc1c[nH]c2ccccc12)C(=O)N[C@@H](CC(C)C)C(=O)N[C@@H](CC(C)C)C(=O)N[C@@H](C)C(=O)N[C@@H](CCC(N)=O)C(=O)N[C@@H](CCCCN)C(N)=O)C(C)C)[C@@H](C)CC) [AT302 [hGIP(3-30)NH2[S11K]-C16diacid/11]] | -7.2 | 69 | – | – | –
